Consider one molecule from patent US20170241986A1, “METHODS FOR IDENTIFYING COMPOUNDS THAT ALTER THE ACTIVITY OF IRHOM POLYPEPTIDES AND USE THEREOF” (The Jackson Laboratory, priority 2014, published 2017).

In this experiment the target is T1, HA-tagged human AREG (amphiregulin) (human) (UniProt P15514).
T1 sequence (looked up): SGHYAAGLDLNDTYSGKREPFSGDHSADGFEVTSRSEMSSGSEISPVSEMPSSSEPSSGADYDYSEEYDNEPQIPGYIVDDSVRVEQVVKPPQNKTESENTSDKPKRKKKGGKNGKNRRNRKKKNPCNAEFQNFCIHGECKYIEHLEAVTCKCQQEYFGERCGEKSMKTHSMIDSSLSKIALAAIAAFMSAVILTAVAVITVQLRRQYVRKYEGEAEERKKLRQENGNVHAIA
The experiment is described as follows: cell-based or functional assay.

B1: Flag-tagged HuCub (human version of cub cDNA; N-terminal-truncated human iRhom2) (enzyme, not shown: small tags and cut ends)
chain: MSSMPDDVFESPPLSASYFRGIPHSASPVSPDGVQIPLKEYGRAPVPGPRRGKRIASKVKHFAFDRKKRHYGLGVVGNWLNRSYRRSISSTVQRQLESFDSHRPYFTYWLTFVHVIITLLVICTYGIAPVGFAQHVTTQLVLRNKGVYESVKYIQQENFWVGPSSIDLIHLGAKFSPCIRKDGQIEQLVLRERDLERDSGCCVQNDHSGCIQTQRKDCSETLATFVKWQDDTGPPMDKSDLGQKRTSGAVCHQDPRTCEEPASSGAHIWPDDITKWPICTEQARSNHTGFLHMDCEIKGRPCCIGTKGSCEITTREYCEFMHGYFHEEATLCSQVHCLDKVCGLLPFLNPEVPDQFYRLWLSLFLHAGVVHCLVSVVFQMTILRDLEKLAGWHRIAIIFILSGITGNLASAIFLPYRAEVGPAGSQFGLLACLFVELFQSWPLLERPWKAFLNLSAIVLFLFICGLLPWIDNIAHIFGFLSGLLLAFAFLPYITFGTSDKYRKRALILVSLLAFAGLFAALVLWLYIYPINWPWIEHLTCFPFTSRFCEKYELDQVLH
B1: the AREG levels after co-transfection was 2 to 3 fold and the AREG levels in conditioned medium (ELISA) of co-transfected 293T cells in the presence of marimastat was 2 fold.
